Data set [1] concerns murine colon carcinoma, Colo 26. Kind of data set: IL-18 and 5-FU combination therapy in syngeneic model of murine colon cancer Colo26. Type of data set: in vivo, BALB/c mice. Particulars: monotherapy with 5-FU alone or mIL-18 alone. As for the experimental part: This study aimed to evaluate the efficacy of mIL-18 (SEQ ID NO:2) combination therapy with 5-fluorouracil (5-FU), as compared to monotherapy with 5-FU, or mIL-18 (SEQ ID NO:2) alone. Our study was performed in a well established syngeneic subcutaneous model of murine colon carcinoma, Colo 26, in BALB/c mice. The dosing with mIL-18 (SEQ ID NO:2) was performed daily with 10 μg/mouse s.c. on days 10-30 after tumor inoculation. The dosing with 5-FU was performed i.p. twice a week in the ascending dose: 27, 45 and 74 μg/mouse.
The data comparing tumor volumes in different treatment groups were evaluated at a selected representative time-point, and were expressed as mean+/−SD (FIG. 21), and as median+/−range (FIG. 22). The data were first checked for normal distribution (Gaussian approximation), and standard deviation values were compared to make sure that there is an equal variance. […] Therefore, a non-parametric test (Kruskal-Wallis analysis and Dunn's comparison test) was used for the statistical evaluation. […] FIG. 24 (median+/−SD) and FIG. 25 (mean+/−SD) show the effect of IL-18 and 5-FU combination therapy in same Colo26 syngeneic colon tumor model. […]
Survival of mice bearing Colo26 in different treatment groups was plotted in a Kaplan-Meyer survival curve analysis, and evaluated by Logrank test, and is shown in FIG. 26. […]

Data set [2] concerns EL-4 murine T-lymphoma cells. Description: IL-18 combination with doxorubicin in EL-4 T cell lymphoma (survival, increase in lifespan). The class given is in vivo, C57/BL/6 mice. The protocol:
Studies were performed in female C57/BL/6 mice. As a general protocol, C57/BL mice were injected I.P. with 0.2 cc of stock EL-4 cells. EL-4 murine T-lymphoma cells were expanded in RPMI w/10% FCS. All animals were randomized to six or seven mice per study group with food and water ad libitum.
EL-4 cells were harvested on day 0, counted and implanted I.P. with 5×10^5 EL-4 lymphoma cells. Animals were randomized to treatment groups of 6/7 animals on Day 3. Doxorubicin was administered IV on Days 3 &10, pos-implantation. mIL-18 (SEQ ID NO:2) was administered S.C. on Days 3-16. The animals were observed daily for toxicity and mortality.
All animals tolerated dosing schedule and levels well by gross observation. On day 16, all dosing was terminated, and median vehicle death occurred on day 17.5. All vehicle mice expired between days 16-18 post-implantation. Increase in lifespan was calculated by study group/vehicle group—1×100%. For mIL-18 (SEQ ID NO:2) combination therapy with doxorubicin in EL-4 T cell lymphoma, the data were analyzed with respect to median survival time and increase in lifespan.

Data set [3] concerns NK cells. Description: NK cytotoxicity assay in the EL-4 T-cell lymphoma model. The following applies: FIG. 12; 21 hours post-treatment.
For data set [4] the following is noted: cited from earlier work.
The test system of a further data set is MOPC-315 plasmacytoma. Description: IL-18 monotherapy in advanced MOPC-315 plasmacytoma model. Type of data set: in vivo, mice.
The test system of data set [5] is NK cells.

Read-outs that look alike come from different tables or passages of the source.

Take `O=c1[nH]cc(F)c(=O)[nH]1` [5-FU, 5-fluorouracil, reference compound]: the “therapeutic effect on tumor growth compared to control” value in data set [1] was “did not show a therapeutic effect better than a control”.
In the case of `COc1cccc2c1C(=O)c1c(O)c3c(c(O)c1C2=O)C[C@@](O)(C(=O)CO)C[C@@H]3O[C@H]1C[C@H](N)[C@H](O)[C@H](C)O1` [doxorubicin, Doxorubicin, reference compound], the increase in lifespan entry in data set [2] (doxorubicin monotherapy, 12 mg/kg, IV days 3 & 10) is “minimal increase in lifespan”. In addition, the NK cytotoxicity result in the data set with NK cells [3] is listed as “impaired”.
As for “human IL-18: recombinant mature form of human interleukin-18, expressed in a non-pathogenic strain of Escherichia coli”, the “toxicity at the highest dose tested” value in data set [4] (2000 μg/kg administered weekly for up to 24 weeks, patients with renal cell carcinoma and metastatic melanoma) was “no significant toxicity”. Also, the maximum tolerated dose result in data set [4] (doses up to 2000 μg/kg weekly for up to 24 weeks) was “not identified”.

B1: mIL-18: Recombinant murine IL-18 (SEQ ID NO:2), used in the pre-clinical studies (protein)
chain: NFGRLHCTTAVIRNINDQVLFVDKRQPVFEDMTDIDQSASEPQTRLIIYMYKDSEVRGLAVTLSVKDSKMSTLSCKNKIISFEEMDPPENIDDIQSDLIFFQKRVPGHNKMEFESSLYEGHFLACQKEDDAFKLILKKKDENGDKSVMFTLTNLHQS
modifications: Murine
B1: in data set [2] (IL-18 monotherapy at 1, 5 and 25 ug/dose, S.C. days 3-16), the increase in lifespan entry was “did not show any increase in lifespan”. Also, the “therapeutic effect on tumor growth compared to control” value in data set [1] was “did not show a therapeutic effect better than a control”. Moreover, the anti-tumor effect result in the data set with MOPC-315 plasmacytoma (advanced tumor, 5 mg/Kg daily for approximately 30 days) is “reproducible tumor regressions and cure”. For the same molecule, the “outcome of rechallenge with parental tumor” value with MOPC-315 plasmacytoma (after cure by murine IL-18) is recorded as “tumor rejection”. For the same molecule, the “anti-tumor effect in SCID mice” value in the data set with MOPC-315 plasmacytoma (severe combined immunodeficient mice bearing advanced MOPC-315 tumors, similar schedule) was “failed to regress”. Further, the NK cytotoxicity entry in the data set on NK cells [5] is “robust NK cytotoxicity”.

The record behind these values is patent US20100196310A1, “METHODS OF TREATING CANCER BY ADMINISTERING HUMAN IL-18 COMBINATIONS” (SMITHKLINE BEECHAM CORPORATION, priority 2007, published 2010).
